The values that follow come from paper PMC5768722.

The target of this test is Pertuzumab Cλ variants. As to the kind of experiment: BLI; antibody light chain variants pre-loaded on Anti-hIgG-Fc Capture (AHC) biosensors, Her2 at 100 nM to 6.25 nM, Octet QKe, 1x kinetic buffer.

As for “HIS-tagged Her2 (recombinant extracellular portion) (from UniProt P04626 23-652) (domain or fragment)”, the Kd was in the range of 0.77 to 1.42 nM.
